Laboratory results published in patent US20060134801A1, “Methods and compositions involving MDA-7” (Board of Regents, The University of Texas System, priority 2003, published 2006).

Key:
Type in all cases: cell-based, human
HUVEC and HMVEC = test: Endothelial cell proliferation assay (trypan blue); details: 1, 5, 10, 50 ng/ml; 1 ng/ml bFGF; vs PBS
Experimental: To test the effect of sMDA-7 protein on cell proliferation, endothelial cells (HUVEC, HMVEC) were serum-starved overnight. The next day, cells were seeded in 2-well chamber slides (1−10^4/well). The cells were allowed to adhere and spread for 4-6 h, and fresh medium containing 1 ng/ml of bFGF as a proangiogenic stimulator, and various concentrations of sMDA-7/IL-24 (1, 5, 10, and 50 ng/ml) was added. Cells treated with PBS served as controls. Cells were then harvested 3 days after treatment and cell proliferation determined by trypan blue exclusion assay method as previously described (Saeki et aL, 2000). The effect of sMDA-7 on lung tumor cell (H1299, and A549) proliferation was also evaluated. The experimental conditions were the same as described above for endothelial cells except that tumor cells were not stimulated with bFGF.

HUVEC [1] = test: Endothelial cell migration assay (Transwell, VEGF); details: VEGF 100 ng/ml
Experimental: Cell migration assays were performed using HUVEC. Cells were starved overnight in basal medium containing 0.5% fetal bovine serum, collected, resuspended in the same medium, and seeded at a concentration of 10^5 cells/well on the upper surface of a 24-well transwell insert with a pore size of 8 μm (Millipore, Cambridge, Mass.). The insert was placed in a six-well plate that contained medium plus PBS, medium plus VEGF (100 ng/ml) or VEGF plus sMDA-7 (10 or 50 ng/ml). The plates containing the transwell insert were incubated at 37° C. overnight to allow migration. The next day, the wells were disassembled, membranes were fixed in crystal violet, and the number of cells that had migrated to the lower wells was counted under high-power magnification (×40).

A549 and H1299 = test: Effect of secreted MDA-7 protein on lung cancer cells
Experimental: The number of apoptotic cells was measured by propidium iodide staining and FACS analysis. Cells were harvested, pelleted by centrifugation and resuspended in phosphate-buffered saline containing 50 μg/ml propidium iodide, 0.1% Triton X-100, and 0.1% sodium citrate. Samples were stored at 4° C. for 1-3 hours and vortexed prior to FACS analysis (Becton-Dickenson FACScan, Mountain View, Calif.; FL-3 channel).

HUVECs = test: Clonogenic survival of endothelial cells after irradiation; details: MDA-7 protein 10 ng/ml; angiostatin, endostatin 100 ng/ml; 12 h before irradiation
Experimental: Twelve hours after seeding HUVECs in 4-well plates (Nunc, Roskilde, Denmark), medium was replaced with serum/growth factor-free medium. After serum/growth factor starvation for 12 hours, cells were treated with complete medium containing either MDA-7 protein (10 ng/ml) (removed from cultures of 293 cells), angiostatin (100 ng/ml), or endostatin (100 ng/ml). Twelve hours later, cells were irradiated with ^137CS unit (3.4 Gy/min) at room temperature, trypsinized and counted. Known numbers of cells were replated in 60 mm culture dishes and incubated to allow macroscopic colony development. Colonies were counted after 14 days, and the percent plating efficiency and surviving fractions following given treatments were calculated based on the survival of non-irradiated cells.

HUVEC [2] = test: IP-10 and IFN-γ production by ELISA; details: 10 ng/ml; 48 h period
Experimental: Furthermore, IFN-γ is a potent inducer of IP-10 (Majumder et al., 1998). […] Studies were conducted to determine whether the antiangiogenic activity of sMDA-7 was mediated by IFN-γ or IP-10. HUVEC were seeded in 6-well plates (1×10^5/well) and treated with sMDA-7 (10 ng/ml). Cell culture supernatant was collected at 6 h, 24 h, and 48 h after treatment, centrifuged at 1200 rpm, and analyzed for IP-10 and IFN-γ protein production using commercially available ELISA kits. Assays were performed as recommended by the manufacturer (R&D systems, Minneapolis, Minn.). […] Cells treated with PBS served as negative controls in these experiments. Samples were analyzed in quadruplicate, and data represented as the average value for each concentration of sMDA-7 tested.

[3] = tested on: MiaPaCa2 pancreatic cancer cells; test: MDA-7 protein on pancreatic cancer cells: STAT3 activation, killing
Experimental: MiaPaCa2 pancreatic cancer cells were treated with purified recombinant human MDA-7 protein, as described in Example 11. By immunofluorescence, substantial activation (phosphorylation) of STAT3 and concomitant movement of p-STAT3 to the nucleus were observed. The STAT3 activation was blocked in the presence of anti-MDA-7 antibodies.

MeWo = test: Trypan blue viability; details: 40 ng/ml, 3 days
From the text: (§1) rhMDA-7 (IL-24) protein was purified from 293-mda7 cells using affinity chromatography. Various lots of protein ranged from 30% ->80% purity based upon silver stain. The rhMDA-7 protein was applied to melanoma cell lines, and cells assessed for viability using the Trypan blue assay. […] Treatment of melanoma cells with rhMDA-7 results in rapid activation (via phosphorylation) of STAT3. The cytotoxicity observed in melanoma cells is inhibited by anti-MDA-7 antibodies.
(§2) The mechanism of the anti-tumor activity of rhMDA-7 was also evaluated. Melanoma cells were treated with rhMDA-7 protein and assessed for apoptosis using the TUNEL assay. […] These studies were performed with purified rhMDA-7 protein. The melanoma cells have also been treated with supernatant from 293-mda7 cells or control 293 cells. Only the 293-mda7 supernatant causes cell killing.

A375 = test: Trypan blue viability; details: 40 ng/ml, 3 days
From the text: as §1, §2

WM793 = test: Trypan blue viability; details: 40 ng/ml, 3 days
From the text: as §1, §2

SK-Mel-1 = test: Trypan blue viability; details: 40 ng/ml, 3 days
From the text: as §1, §2

A375.S2 = test: Trypan blue viability; details: 40 ng/ml, 3 days
From the text: as §1, §2

WM35 = test: Trypan blue viability; details: 40 ng/ml, 3 days
From the text: as §1, §2

B1: sMDA-7: soluble secreted human MDA-7 (IL-24) protein purified from stably transfected 293-mda-7 cells (protein)
chain: AQGQEFHFGPCQVKGVVPQKLWEAFWAVKDTMQAQDNITSARLLQQEVLQNVSDAESCYLVHTLLEFYLKTVFKNYHNRTVEVRTLKSFSTLANNFVLIVSQLQPSQENEMFSIRDSAHRRFLLFRRAFKQLDVEAALTKALGEVDILLTWMQKFYKL
HUVEC and HMVEC
  antiproliferative activity: no significant antiproliferative activity
HUVEC [1]
  concentration giving complete inhibition of migration: 50 ng/mL
  endothelial cell migration in response to VEGF: inhibited endothelial cell migration significantly
A549 and H1299
  cell growth inhibition or cell death: did not induce cell growth inhibition or cell death
HUVECs
  radiosensitization of HUVECs: sensitized
HUVEC [2]
  induced secretion of IFN-γ: < 30 pg/mL
  induced secretion of IP-10: < 32 pg/mL
[3]
  killing of MiaPaCa2 cells: dose-dependent killing
  time to evident STAT3 activation: ≤ 30 min
MeWo
  % Dead: 20%
A375
  % Dead: 26.6%
WM793
  % Dead: 5.2%
SK-Mel-1
  % Dead: 5.2%
A375.S2
  % Dead: 22.2%
WM35
  % Dead: 17.6%
